{"source": "paper PMC5826585", "target": "IGF2BP2-dRRM (Homo sapiens, UniProt Q9Y6M1 158-599)", "sequence (Q9Y6M1 158-599)": "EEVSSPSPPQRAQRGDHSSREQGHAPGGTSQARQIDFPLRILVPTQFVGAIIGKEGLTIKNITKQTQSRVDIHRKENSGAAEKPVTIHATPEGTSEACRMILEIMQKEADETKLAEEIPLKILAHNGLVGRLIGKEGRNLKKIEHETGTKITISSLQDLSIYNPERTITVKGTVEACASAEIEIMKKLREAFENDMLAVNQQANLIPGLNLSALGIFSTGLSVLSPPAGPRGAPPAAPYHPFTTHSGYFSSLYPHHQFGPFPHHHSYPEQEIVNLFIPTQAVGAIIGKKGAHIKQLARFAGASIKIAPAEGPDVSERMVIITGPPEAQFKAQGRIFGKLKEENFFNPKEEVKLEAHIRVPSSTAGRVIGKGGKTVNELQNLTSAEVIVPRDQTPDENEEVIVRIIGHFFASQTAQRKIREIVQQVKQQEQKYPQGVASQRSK", "experiment": "pull-down"}
{"binder": "CGUCUCGGACUCGGACUGCU (ssRNA, m6A at positions 9 and 15)", "note": "[ss-m6A (biotin)]", "values": [{"measurement": "binding result", "result": "binds"}]}
